Experimental data reported in publication PMC7582164, “The soluble neurexin-1β ectodomain causes calcium influx and augments dendritic outgrowth and synaptic transmission” (Scientific Reports, 2020).
No end group written: not given here.

Key:
[1] = target: Recombinant neuroligin-1 (NL-1) (UniProt Q62765); assay: SPR; Biacore 2000; NL-1 immobilised on a CM4 chip by amine coupling (~2800 RU); analyte NX-1β Fc chimera 0.05-0.8 µM or Neurexide 1.25-20 µM; 25 °C; HBS-P (10 mM HEPES pH 7.4, 150 mM NaCl, 0.005% P20) with 3 mM CaCl2; 30 µl/min; 1:1 Langmuir fit
Recombinant neuroligin-1 (NL-1) (UniProt Q62765), sequence (Q62765 46-697): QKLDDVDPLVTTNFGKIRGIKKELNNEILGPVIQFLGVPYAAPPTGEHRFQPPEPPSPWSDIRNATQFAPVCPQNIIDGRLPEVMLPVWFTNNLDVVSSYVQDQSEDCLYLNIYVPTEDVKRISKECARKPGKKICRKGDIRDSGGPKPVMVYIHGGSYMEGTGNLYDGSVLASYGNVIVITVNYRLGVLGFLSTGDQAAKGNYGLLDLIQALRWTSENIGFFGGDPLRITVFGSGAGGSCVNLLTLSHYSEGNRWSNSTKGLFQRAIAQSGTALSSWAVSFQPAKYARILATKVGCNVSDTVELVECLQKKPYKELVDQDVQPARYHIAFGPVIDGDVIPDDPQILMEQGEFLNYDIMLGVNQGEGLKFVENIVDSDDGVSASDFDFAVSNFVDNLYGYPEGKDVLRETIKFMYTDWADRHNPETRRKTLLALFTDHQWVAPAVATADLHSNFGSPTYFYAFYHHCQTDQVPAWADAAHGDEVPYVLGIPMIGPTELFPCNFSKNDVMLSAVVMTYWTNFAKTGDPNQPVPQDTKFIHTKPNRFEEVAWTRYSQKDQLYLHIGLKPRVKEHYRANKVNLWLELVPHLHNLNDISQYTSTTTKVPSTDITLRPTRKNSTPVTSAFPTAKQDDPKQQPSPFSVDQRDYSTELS

[2] = target: T1, Recombinant neuroligin-1 (NL-1) (UniProt Q62765 46-697); assay: as above; conditions: both partners purified
T1 construct: neuroligin-1, recombinant; source: bought: R&D Systems (cat# 4340-NL)
T1 sequence (Q62765 46-697): as above

| Kd [1] [nM] | Kd [2] [nM] | Molecule |
| --- | --- | --- |
| 32 |  | Human neurexin-1β Fc-chimera (NX-1β ectodomain lacking splice site 4) (from UniProt P58400 51-396) (Fc fusion) |
|  | 480 | ARPSTRADRA (also: tetramer coupled to a lysine backbone, The peptide was made as a C-terminally amidated monomer, a dimer and a tetramer; also called Neurexin peptide; source: synthetic peptide) |
